Experimental data taken from patent US20230192835A1 (PROMETHEUS BIOSCIENCES, published 2023).

T1: membrane-associated human TL1A on transfected HEK293 cells (human, UniProt O95150 1-251)
T1 construct: whole, on cells
T1 sequence (looked up): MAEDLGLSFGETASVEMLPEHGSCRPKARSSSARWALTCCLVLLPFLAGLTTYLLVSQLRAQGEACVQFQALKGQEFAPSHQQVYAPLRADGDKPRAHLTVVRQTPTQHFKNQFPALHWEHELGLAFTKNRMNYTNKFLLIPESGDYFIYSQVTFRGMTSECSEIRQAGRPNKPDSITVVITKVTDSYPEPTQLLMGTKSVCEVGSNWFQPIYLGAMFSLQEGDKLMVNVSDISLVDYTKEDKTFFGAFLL


Columns and labels:
[1] = target: T1, membrane-associated human TL1A on …; assay: flow cytometry, HEK293 cells expressing human TL1A, Fab
Protocol: All the Fab variants were tested for binding to membrane-associated human TL1A. For these studies a HEK293 cell line that had been transfected with human TL1A was used. The 293 cells expressing membrane bound human TL1A were maintained in DMEM containing L-glutamine, glucose, sodium pyruvate, and phenol red (ThermoFisher cat #11995-065) plus 10% fetal bovine serum, 1× penicillin-streptomycin (Fisher cat #15140122) and 2 μg/ml puromycin (Gibco cat #A11138-03) in a 37° C. incubator with 5% CO₂. Three days prior to the assay, a T-75 flask was seeded with 3×10⁶ cells so that the flask was 90-95% confluent on the day of the assay. The media was aspirated and the cell monolayer was gently washed with 5 ml PBS. Adherent cells were removed by repeatedly pipetting 10 ml ice cold 1% BSA/PBS against the monolayer. The cells were counted and 5×10⁵ were aliquoted for each sample to be analyzed. The cells were collected by centrifuging at 300×g at 4° C. for 5 minutes and the wash was discarded. The cells were resuspended in 100 μl Fab or IgG diluted in 1% BSA/PBS and placed on ice for 30 min. Next, the cells were washed with 1 ml 1% BSA/PBS and collected by centrifuging at 300×g at 4° C. for 5 min. The wash was discarded and 100 μl secondary goat F(ab′)2 anti-human kappa FITC (Southern Biotech cat #2062-02) or goat F(ab′)2 anti-human IgG PE (Southern Biotech cat #2043-09) conjugate, diluted 1:200 in BSA/PBS was added. Cells were placed on ice for 30 min. Finally, the cells were washed with 1 ml BSA/PBS, collected by centrifuging at 300×g at 4° C. for 5 min. The wash was removed and the cells were resuspended in 500 μl 1% BSA/PBS. One drop of Sytox AADvanced ReadyFlow Reagent (ThermoFisher cat #R37173) was added per sample and the samples were analyzed on the Attune NxT Flow Cytometer (ThermoFisher).

[2] = target: T1, membrane-associated human TL1A on …; assay: flow cytometry, HEK293 cells expressing human TL1A, IgG

Row | binding result [1] | binding result [2] | Binder
1 | binds | – | Clone 2 Fab (Fab, V domains shown, Fab) VH: QVQLVQSGAEVKKPGASVKVSCKASGFDIQDTYMHWVRQAPGQGLEWMGRIEPASGHIKYSPKFQGRVTMTRDTSTSTVYMELSSLRSEDTAVYYCARSGGLPDWWGQGTTVTVSS VL: EIVLTQSPGTLSLSPGERATLSCRASSSVSYMYWYQQKPGQAPRLLIYATSNLASGIPDRFSGSGSGTDFTLTISRLEPEDFAVYYCQQWEGNPRTFGGGTKLEIK
2 | binds | – | Clone 52 Fab (Fab, V domains shown, Fab) VH: QVQLVQSGAEVKKPGASVKVSCKASGFDIQDTYMHWVRQAPGQGLEWMGRIEPASGHIKYSPKFQGRVTMTRDTSTSTVYMELSSLRSEDTAVYYCARSGGLPDWWGQGTTVTVSS VL: EIVLTQSPGTLSLSPGERATLSCGASSSVSYMYWYQQKPGQAPRLLIYATSNLASGIPDRFSGSGSGTDFTLTISRLEPEDFAVYYCQQWEGNPRTFGGGTKLEIK
3 | binds | – | Clone 47 Fab (Fab, V domains shown, Fab) VH: QVQLVQSGAEVKKPGASVKVSCKASGFDIQDTYMHWVRQAPGQGLEWMGRIEPASGHVKYDPKFQTRVTMTRDTSTSTVYMELSSLRSEDTAVYYCARSGGLPDWWGQGTTVTVSS VL: EIVLTQSPGTLSLSPGERATLSCRASSSVSYMYWYQQKPGQAPRLLIYATSNLASGIPDRFSGSGSGTDFTLTISRLEPEDFAVYYCQQWEGNPRTFGGGTKLEIK
4 | binds | – | Clone 46 Fab (Fab, V domains shown, Fab) VH: QVQLVQSGAEVKKPGASVKVSCKASGFDIQDTYMHWVRQAPGQGLEWMGRIEPASGHVKYSPKFQVRVTMTRDTSTSTVYMELSSLRSEDTAVYYCARSGGLPDWWGQGTTVTVSS VL: EIVLTQSPGTLSLSPGERATLSCRASSSVSYMYWYQQKPGQAPRLLIYATSNLASGIPDRFSGSGSGTDFTLTISRLEPEDFAVYYCQQWEGNPRTFGGGTKLEIK
5 | binds | – | Clone 17L Fab (Fab, V domains shown, Fab) VH: QVQLVQSGAEVKKPGASVKVSCKASGFDIQDTYMHWVRQAPGQGLEWMGRIDPASGHLKYDPKFQVRVTMTRDTSTSTVYMELSSLRSEDTAVYYCARSGGLPDMWGQGTTVTVSS VL: EIVLTQSPGTLSLSPGERATLSCRASSSVSYMYWYQQKPGQAPRLLIYATSNLASGIPDRFSGSGSGTDFTLTISRLEPEDFAVYYCQQWQGNPRTFGGGTKLEIK
6 | – | binds | Clone 17L IgG1 (modified) (antibody, also called 17L G1) heavy: not shown light: EIVLTQSPGTLSLSPGERATLSCRASSSVSYMYWYQQKPGQAPRLLIYATSNLASGIPDRFSGSGSGTDFTLTISRLEPEDFAVYYCQQWQGNPRTFGGGTKLEIKRTVAAPSVFIFPPSDEQLKSGTASVVCLLNNFYPREAKVQWKVDNALQSGNSQESVTEQDSKDSTYSLSSTLTLSKADYEKHKVYACEVTHQGLSSPVTKSFNRGEC
7 | – | binds | Clone 17L IgG2 (antibody, also called 17L G2) heavy: QVQLVQSGAEVKKPGASVKVSCKASGFDIQDTYMHWVRQAPGQGLEWMGRIDPASGHLKYDPKFQVRVTMTRDTSTSTVYMELSSLRSEDTAVYYCARSGGLPDMWGQGTTVTVSSASTKGPSVFPLAPCSRSTSESTAALGCLVKDYFPEPVTVSWNSGALTSGVHTFPAVLQSSGLYSLSSVVTVPSSNFGTQTYTCNVDHKPSNTKVDKTVERKCCVECPPCPAPPVAGPSVFLFPPKPKDTLMISRTPEVTCVVVDVSHEDPEVQFNWYVDGVEVHNAKTKPREEQFNSTFRVVSVLTVVHQDWLNGKEYKCKVSNKGLPAPIEKTISKTKGQPREPQVYTLPPSREEMTKNQVSLTCLVKGFYPSDIAVEWESNGQPENNYKTTPPMLDSDGSFFLYSKLTVDKSRWQQGNVFSCSVMHEALHNHYTQKSLSLSPGK light: EIVLTQSPGTLSLSPGERATLSCRASSSVSYMYWYQQKPGQAPRLLIYATSNLASGIPDRFSGSGSGTDFTLTISRLEPEDFAVYYCQQWQGNPRTFGGGTKLEIKRTVAAPSVFIFPPSDEQLKSGTASVVCLLNNFYPREAKVQWKVDNALQSGNSQESVTEQDSKDSTYSLSSTLTLSKADYEKHKVYACEVTHQGLSSPVTKSFNRGEC
8 | – | binds | Clone 47 IgG1 (modified) (antibody, also called 47 G1; variant 47) heavy: not shown light: EIVLTQSPGTLSLSPGERATLSCRASSSVSYMYWYQQKPGQAPRLLIYATSNLASGIPDRFSGSGSGTDFTLTISRLEPEDFAVYYCQQWEGNPRTFGGGTKLEIKRTVAAPSVFIFPPSDEQLKSGTASVVCLLNNFYPREAKVQWKVDNALQSGNSQESVTEQDSKDSTYSLSSTLTLSKADYEKHKVYACEVTHQGLSSPVTKSFNRGEC
9 | – | binds | Clone 47 IgG2 (antibody, also called 47 G2) heavy: QVQLVQSGAEVKKPGASVKVSCKASGFDIQDTYMHWVRQAPGQGLEWMGRIEPASGHVKYDPKFQTRVTMTRDTSTSTVYMELSSLRSEDTAVYYCARSGGLPDWWGQGTTVTVSSASTKGPSVFPLAPCSRSTSESTAALGCLVKDYFPEPVTVSWNSGALTSGVHTFPAVLQSSGLYSLSSVVTVPSSNFGTQTYTCNVDHKPSNTKVDKTVERKCCVECPPCPAPPVAGPSVFLFPPKPKDTLMISRTPEVTCVVVDVSHEDPEVQFNWYVDGVEVHNAKTKPREEQFNSTFRVVSVLTVVHQDWLNGKEYKCKVSNKGLPAPIEKTISKTKGQPREPQVYTLPPSREEMTKNQVSLTCLVKGFYPSDIAVEWESNGQPENNYKTTPPMLDSDGSFFLYSKLTVDKSRWQQGNVFSCSVMHEALHNHYTQKSLSLSPGK light: EIVLTQSPGTLSLSPGERATLSCRASSSVSYMYWYQQKPGQAPRLLIYATSNLASGIPDRFSGSGSGTDFTLTISRLEPEDFAVYYCQQWEGNPRTFGGGTKLEIKRTVAAPSVFIFPPSDEQLKSGTASVVCLLNNFYPREAKVQWKVDNALQSGNSQESVTEQDSKDSTYSLSSTLTLSKADYEKHKVYACEVTHQGLSSPVTKSFNRGEC
